# Assay results from the supplement of paper PMC10724198.
# ± gives the standard deviation of the averaged measurements.
# Test system: Saccharomyces cerevisiae
# Assay: protein stability index of tFT-peptide fusion (C-terminal peptide) (PSI (0-1 scale)); higher = more stable (slower turnover)
# Conditions: genetic background: cdc34-1; temperature: 37 C
# Procedure: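 MPS profiling in S. cerevisiae of the tFT-X12 degron library: putative degron peptides plus stable controls, 12 aa, fused to the C-terminus of a sfGFP-mCherry timer. Cells are FACS-sorted into 8 mCherry/sfGFP bins and deep-sequenced. PSI runs from 0 (unstable) to 1 (stable). Backgrounds are wild type, das1Δ and doa10Δ at 30 °C, and wild type, das1Δ, cdc34-1 and cdc53-1 at 37 °C; 2-3 technical replicates each.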
# 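Further: PSI is a weighted mean of sequencing reads over stability bins, variants kept only with over 10 reads, mCherry proximal and sfGFP distal, peptide attached via GGGS linker.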
row,Sequence,protein stability index
1,ACFLFPSHLLIS,0.584 ± 0.021
2,AFCGRRGHQFYN,0.61 ± 0.0073
3,AFRFFWFFFFTS,0.536 ± 0.066
4,AFSISPFRLRMV,0.642 ± 0.026
5,AFWLFSGIARLA,0.568 ± 0.011
6,AGESLRAIAVLY,0.647 ± 0.06
7,AGLTLLWPLCLL,0.28 ± 0.0058
8,AGTLLLGYGILA,0.454 ± 0.019
9,AGVRCPLFWLVC,0.461 ± 0.049
10,AHPTLILTNKIA,0.578 ± 0.13
11,ALLIYFLCRCIP,0.4326 ± 0.00094
12,APLFPPPPARSL,0.652 ± 0.034
13,ARRFLVRRFILF,0.545 ± 0.019
14,ASHLGLGCLVVC,0.601 ± 0.089
15,AVRLPFPLLVHL,0.205 ± 0.012
16,AVVCSRLVLFCL,0.591 ± 0.042
17,AYSVIPSLALLP,0.681 ± 0.062
18,CALLLLSVRAGQ,0.5373 ± 0.00093
19,CCSRFLMLRILV,0.197 ± 0.062
20,CFFFCSLFLSFL,0.439 ± 0.022
21,CFFMVGFVFYFV,0.286 ± 0.031
22,CFFSLLLLIFSV,0.4101 ± 0.0016
23,CFLLVSLGILCW,0.0312 ± 0.00089
24,CFPFYVSCLLVL,0.3061 ± 0.0023
25,CFTLSLCLAFFF,0.41 ± 0.026
26,CGLLSALSCLVF,0.507 ± 0.033
27,CIVFVYCLFSCP,0.206 ± 0.0051
28,CKRWGVVSYVFV,0.601 ± 0.069

row,Sequence,protein stability index
1,CLCFFLICFILF,0.252 ± 0.0092
2,CLCFFMSILWWV,0.4741 ± 0.0038
3,CLCVLVSFFFGL,0.41 ± 0.037
4,CLFHQFITLLVN,0.0942 ± 0.009
5,CLFLNCRFYMFL,0.951 ± 0.021
6,CLFSPFCFILFC,0.0319 ± 0.013
7,CLTGWFGIFSAP,0.708 ± 0.019
8,CMIACYALLRLL,0.176 ± 0.023
9,CPALYMPPPVLV,0.114 ± 0.036
10,CPPPPPSLLLLC,0.531 ± 0.025
11,CRLCVFGVWFCG,0.532 ± 0.033
12,CSPAFRPIVFVL,0.2771 ± 0.00097
13,CSVPLGVFAIVV,0.463 ± 0.0057
14,CSYPTLSMYSTT,0.673 ± 0.068
15,CTFFCICVFFLL,0.349 ± 0.019
16,CTLVVGLFVLVV,0.168 ± 0.02
17,FFCRWGSTVTLL,0.604 ± 0.034
18,GAVRGWGWVSFV,0.622 ± 0.0072
19,GFYQSGGLVVVV,0.6489 ± 0.0026
20,GGGGGGGDVLVW,0.265 ± 0.04
21,LPLPPPGSPPPL,0.653 ± 0.032
22,PSLVFLPPPPPR,0.673 ± 0.04
23,RDTTQRRRKTAA,0.657 ± 0.039
24,RWRLWGGWWVVG,0.601 ± 0.028
25,TGPVFVSFRLLH,0.703 ± 0.065
26,TLDCKFGRGGIG,0.309 ± 0.015
27,WLFAILPSRLIA,0.284 ± 0.021

# Same assay, conditions: genetic background: cdc53-1; temperature: 37 C
row,Sequence,protein stability index
1,ACFLFPSHLLIS,0.689 ± 0.0086
2,AFCGRRGHQFYN,0.743 ± 0.016
3,AFRFFWFFFFTS,0.619 ± 0.042
4,AFSISPFRLRMV,0.753 ± 0.025
5,AFWLFSGIARLA,0.66 ± 0.023
6,AGESLRAIAVLY,0.715 ± 0.025
7,AGLTLLWPLCLL,0.261 ± 0.0053
8,AGTLLLGYGILA,0.464 ± 0.038
9,AGVRCPLFWLVC,0.622 ± 0.032
10,AHPTLILTNKIA,0.705 ± 0.063
11,ALLIYFLCRCIP,0.476 ± 0.011
12,APLFPPPPARSL,0.7023 ± 0.0017
13,ARRFLVRRFILF,0.65822 ± 0.00018
14,ASHLGLGCLVVC,0.571 ± 0.045
15,AVRLPFPLLVHL,0.195 ± 0.0033
16,AVVCSRLVLFCL,0.609 ± 0.021
17,AYSVIPSLALLP,0.741 ± 0.008
18,CALLLLSVRAGQ,0.57 ± 0.02
19,CCSRFLMLRILV,0.208 ± 0.015
20,CFFFCSLFLSFL,0.452 ± 0.011
21,CFFMVGFVFYFV,0.412 ± 0.027
22,CFFSLLLLIFSV,0.412 ± 0.024
23,CFLLVSLGILCW,0.0425 ± 0.02
24,CFPFYVSCLLVL,0.311 ± 0.0064
25,CFTLSLCLAFFF,0.455 ± 0.013
26,CGLLSALSCLVF,0.54 ± 0.011
27,CIVFVYCLFSCP,0.301 ± 0.038
28,CKRWGVVSYVFV,0.6545 ± 0.0054

row,Sequence,protein stability index
1,CLCFFLICFILF,0.255 ± 0.011
2,CLCFFMSILWWV,0.498 ± 0.017
3,CLCVLVSFFFGL,0.489 ± 0.041
4,CLFHQFITLLVN,0.177 ± 0.012
5,CLFLNCRFYMFL,0.898 ± 0.065
6,CLFSPFCFILFC,0.0391 ± 0.0022
7,CLTGWFGIFSAP,0.755 ± 0.025
8,CMIACYALLRLL,0.256 ± 0.011
9,CPALYMPPPVLV,0.13 ± 0.012
10,CPPPPPSLLLLC,0.6762 ± 0.0035
11,CRLCVFGVWFCG,0.535 ± 0.012
12,CSPAFRPIVFVL,0.2732 ± 0.00067
13,CSVPLGVFAIVV,0.471 ± 0.032
14,CSYPTLSMYSTT,0.766 ± 0.038
15,CTFFCICVFFLL,0.413 ± 0.025
16,CTLVVGLFVLVV,0.315 ± 0.022
17,FFCRWGSTVTLL,0.696 ± 0.013
18,GAVRGWGWVSFV,0.789 ± 0.011
19,GFYQSGGLVVVV,0.674 ± 0.014
20,GGGGGGGDVLVW,0.363 ± 0.036
21,LPLPPPGSPPPL,0.744 ± 0.036
22,PSLVFLPPPPPR,0.7452 ± 0.0056
23,RDTTQRRRKTAA,0.662 ± 0.026
24,RWRLWGGWWVVG,0.727 ± 0.012
25,TGPVFVSFRLLH,0.752 ± 0.012
26,TLDCKFGRGGIG,0.423 ± 0.013
27,WLFAILPSRLIA,0.373 ± 0.0075

# Same assay, conditions: genetic background: das1 deletion; temperature: 30 C
row,Sequence,protein stability index
1,ACFLFPSHLLIS,0.541 ± 0.02
2,AFCGRRGHQFYN,0.648 ± 0.018
3,AFRFFWFFFFTS,0.466 ± 0.024
4,AFSISPFRLRMV,0.649 ± 0.013
5,AFWLFSGIARLA,0.472 ± 0.014
6,AGESLRAIAVLY,0.588 ± 0.0077
7,AGLTLLWPLCLL,0.277 ± 0.022
8,AGTLLLGYGILA,0.342 ± 0.023
9,AGVRCPLFWLVC,0.498 ± 0.033
10,AHPTLILTNKIA,0.643 ± 0.025
11,ALLIYFLCRCIP,0.343 ± 0.033
